Test results: the supplement of paper PMC9233669
Variants at the floor of the assay were thinned out.

How the values were obtained:
[1] = system: biotinyl-Trp-oxazolone; experiment: self-aminoacylation, catalytic enhancement (BWO) (fold over background); higher = more active; k-Seq, kA / k0A0; sequences stand for … in GGGAAUGGAUCCACAUCUACGAAUUC…UUCACUGCAGACUUGACGAAGCUG
In short: (§1)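 Mutagenized RNA pools with a 21-nt variable region (0.43 μM) reacted with each biotinyl-aminoacyl-oxazolone at 2–1250 μM. Reactions ran in 50 μL HEPES/NaCl/KCl/MgCl2/CaCl2 buffer with 5% acetonitrile, pH 6.9–7.0, for 90 minutes at room temperature. Streptavidin-captured RNA was quantified by triplicate qPCR and Illumina sequencing, and per-sequence fraction reacted was fit to a pseudo-first-order model with 1000 bootstraps. Catalytic enhancement is median kA divided by the uncatalyzed rate, the low-activity peak of a bimodal Gaussian fit.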

[2] = system: biotinyl-Leu-oxazolone; experiment: self-aminoacylation, catalytic enhancement (BLO) (fold over background); higher = more active; k-Seq, kA / k0A0; sequences stand for … in GGGAAUGGAUCCACAUCUACGAAUUC…UUCACUGCAGACUUGACGAAGCUG
In short: as §1

[3] = system: biotinyl-Ile-oxazolone; experiment: self-aminoacylation, catalytic enhancement (BIO) (fold over background); higher = more active; k-Seq, kA / k0A0; sequences stand for … in GGGAAUGGAUCCACAUCUACGAAUUC…UUCACUGCAGACUUGACGAAGCUG
In short: as §1

[4] = system: biotinyl-Met-oxazolone; experiment: self-aminoacylation, catalytic enhancement (BMO) (fold over background); higher = more active; k-Seq, kA / k0A0; sequences stand for … in GGGAAUGGAUCCACAUCUACGAAUUC…UUCACUGCAGACUUGACGAAGCUG
In short: as §1

[5] = system: biotinyl-Phe-oxazolone; experiment: self-aminoacylation, catalytic enhancement (BFO) (fold over background); higher = more active; k-Seq, kA / k0A0; sequences stand for … in GGGAAUGGAUCCACAUCUACGAAUUC…UUCACUGCAGACUUGACGAAGCUG
In short: as §1

[6] = system: biotinyl-Val-oxazolone; experiment: self-aminoacylation, catalytic enhancement (BVO) (fold over background); higher = more active; k-Seq, kA / k0A0; sequences stand for … in GGGAAUGGAUCCACAUCUACGAAUUC…UUCACUGCAGACUUGACGAAGCUG
In short: as §1

Sequence	self-aminoacylation [1]	self-aminoacylation [2]	self-aminoacylation [3]	self-aminoacylation [4]	self-aminoacylation [5]	self-aminoacylation [6]
AUUUCCCUGGUAAUCGAGUGA [Fam2.1 aminoacylation ribozyme variant]	9.31	8.19	3.84	7.89	57.7	4.01
AUUUCCCUGGUCACCGAGUGA [Fam2.1 aminoacylation ribozyme variant]	9.27	8.24	3.79	8.77	66.2	4.43
AUUUCCCUGGUCAUCCAGUGA [Fam2.1 aminoacylation ribozyme variant]	9.93	8.35	4.3	7.52	55.4	4.5
AUUUCCCUGGUCAUCGAGAGA [Fam2.1 aminoacylation ribozyme variant]	0.74	1.1	1.2	0.896	1.31	1.27
AUUUCCCUGGUCAUCGAGGGA [Fam2.1 aminoacylation ribozyme variant]	1.65	1.83	1.47	1.44	1.28	1.59
AUUUCCCUGGUCAUCGAGUGG [Fam2.1 aminoacylation ribozyme variant]	7.09	8.26	3.66	7.95	12	3.99
AUUUCCCUGGUCAUCGAGUGU [Fam2.1 aminoacylation ribozyme variant]	12.4	14.6	6.35	14.9	26.8	7.71
AUUUCCCUGGUCAUCGCGUGA [Fam2.1 aminoacylation ribozyme variant]	22.5	20.9	9.18	18.9	157	10.4
AUUUCCCUGGUCAUCGGGUGA [Fam2.1 aminoacylation ribozyme variant]	23.9	21.5	10.1	18.5	90.8	11.6
AUUUCCCUGGUCCUCGAGUGA [Fam2.1 aminoacylation ribozyme variant]	3.91	3.67	2.08	3.79	23.5	1.93
AUUUCCCUGGUUAUCGAGUGA [Fam2.1 aminoacylation ribozyme variant]	10.9	8.65	4.12	9.01	58.2	4.39
AUUUUCCUGGUCAUCGAGUGA [Fam2.1 aminoacylation ribozyme variant]	9.4	8.6	4.2	8.02	10.8	4.13
CAACACGUCAAGCAAUCGGUC [Fam1B.1 aminoacylation ribozyme variant]	1.47	1.37	1.11	1.44	1.33	1.22
CAACACUACAAGCAAUCGGUC [Fam1B.1 aminoacylation ribozyme variant]	0.713	0.914	0.955	0.956	0.958	1.01
CAACACUUAAAGCAAUCGGUC [Fam1B.1 aminoacylation ribozyme variant]	0.79	0.82	1.12	0.98	0.828	0.909
CAACACUUCAACCAAUCGGUC [Fam1B.1 aminoacylation ribozyme variant]	28.2	2.04	1.28	1.58	45.6	1.36
CAACACUUCAAGCAAUCGGUG [Fam1B.1 aminoacylation ribozyme variant]	3.87	4.86	3.09	4.13	4.92	2.73
CAACUUCAAACAAUCGGCCUG [Fam1A.1 aminoacylation ribozyme variant]	107	6.75	3.08	4.11	283	2.92
CAACUUCAAUCAAUCGGUCUG [Fam1A.1 aminoacylation ribozyme variant]	24	2.03	1.43	1.36	35.7	1.4
CAAUACUUCAAGCAAUCGGUC [Fam1B.1 aminoacylation ribozyme variant]	5.14	0.986	0.907	0.799	9.23	0.912
CAGUUUGCUAACAGUCGCAAG [Fam3.1 aminoacylation ribozyme variant]	1.32	1.6	1.31	1.83	2	1.16
CAGUUUGCUAAUAGACGCAAG [Fam3.1 aminoacylation ribozyme variant]	1.61	0.895	0.91	0.814	1.08	0.858
CAGUUUGCUAAUAGUCGCAAG [Fam3.1 aminoacylation ribozyme variant]	1.55	1.35	1.36	1.28	2.94	1.21
CAGUUUGCUAGUAGUCGCAAG [Fam3.1 aminoacylation ribozyme variant]	1.37	1.25	0.938	0.827	1.19	1.04
CAGUUUGGUAAUAGUCGCAAG [Fam3.1 aminoacylation ribozyme variant]	1.97	1.73	1.85	1.73	2.57	1.67
CAUCACCUAGGUCAUCGGGUG [Fam2.2 aminoacylation ribozyme variant]	5.76	6.23	3.15	6.18	21	4.05

Sequence	self-aminoacylation [1]	self-aminoacylation [2]	self-aminoacylation [3]	self-aminoacylation [4]	self-aminoacylation [5]	self-aminoacylation [6]
CCAAACUUCAAGCAAUAGGUC [Fam1B.1 aminoacylation ribozyme variant]	0.458	0.527	0.605	0.574	0.911	0.602
CCAAACUUCAAGCAAUCGGAC [Fam1B.1 aminoacylation ribozyme variant]	0.602	0.789	0.912	0.662	1.14	1.1
CCAAACUUCAAGCAAUCGGUG [Fam1B.1 aminoacylation ribozyme variant]	6.12	8.21	4.67	5.65	32.4	4.43
CCAAACUUCAAGCAAUCGUUC [Fam1B.1 aminoacylation ribozyme variant]	0.803	0.621	0.743	0.66	0.813	0.93
CCAAACUUCAAUCAAUCGGUC [Fam1B.1 aminoacylation ribozyme variant]	23.5	1.73	1.29	1.43	36.8	1.28
CCAAACUUGAAGCAAUCGGUC [Fam1B.1 aminoacylation ribozyme variant]	0.693	0.828	0.898	0.87	0.596	0.996
CCAAAGUUCAAGCAAUCGGUC [Fam1B.1 aminoacylation ribozyme variant]	1.17	1.28	1.35	1.32	1.35	1.4
CCAAUUCAAACAAUCGGUCUG [Fam1A.1 aminoacylation ribozyme variant]	5.22	1.16	1.11	1.02	6.78	1.11
CCACAAGUCAAGCAAUCGGUC [Fam1B.1 aminoacylation ribozyme variant]	1.32	1.49	1.64	1.67	1.15	1.54
CCACAAUUCAAGCAAUCGGAC [Fam1B.1 aminoacylation ribozyme variant]	0.711	0.884	1.15	0.783	0.942	0.798
CCACAAUUCAAGCAAUCGGUC [Fam1B.1 aminoacylation ribozyme variant]	1.69	0.973	1.17	0.936	2.8	1.16
CCACAAUUCAAGCAGUCGGUC [Fam1B.1 aminoacylation ribozyme variant]	0.925	1.17	1.36	1.11	1.06	1.22
CCACAAUUCAAGCAUUCGGUC [Fam1B.1 aminoacylation ribozyme variant]	1.36	1.94	1.96	1.68	1.36	1.85
CCACAAUUCGAGCAAUCGGUC [Fam1B.1 aminoacylation ribozyme variant]	1.08	1.07	1.28	0.985	0.736	1.58
CCACACAUCAAACAAUCGGUC [Fam1B.1 aminoacylation ribozyme variant]	1.92	0.749	0.795	0.715	3.04	0.92
CCACACAUCAAGAAAUCGGUC [Fam1B.1 aminoacylation ribozyme variant]	0.645	0.792	0.732	0.61	1.2	0.776
CCACACAUCAAGCAACCGGUC [Fam1B.1 aminoacylation ribozyme variant]	1.14	0.817	1.4	1.21	1.29	1.13
CCACACAUCAAGCAAUAGGUC [Fam1B.1 aminoacylation ribozyme variant]	0.736	0.574	0.864	0.698	1.52	1.02
CCACACAUCAAGCAAUCGGAC [Fam1B.1 aminoacylation ribozyme variant]	0.906	0.808	0.897	0.748	0.446	1.03
CCACACAUUAAGCAAUCGGUC [Fam1B.1 aminoacylation ribozyme variant]	0.62	0.667	0.966	0.709	1	0.867
CCACACCUCAAACAAUCGGUC [Fam1B.1 aminoacylation ribozyme variant]	4.47	1.29	1.24	1.04	7.05	1.13
CCACACCUGAAGCAAUCGGUC [Fam1B.1 aminoacylation ribozyme variant]	0.911	0.946	1.01	0.903	0.952	1.18
CCACACGCCAAGCAAUCGGUC [Fam1B.1 aminoacylation ribozyme variant]	0.555	0.862	0.961	1.29	0.829	1.23
CCACACGUCAAGCAAUCAGUC [Fam1B.1 aminoacylation ribozyme variant]	0.482	0.713	0.647	0.665	0.738	0.88
CCACACGUCAAGCAAUCGAUC [Fam1B.1 aminoacylation ribozyme variant]	0.645	0.62	0.667	0.657	0.631	0.921
